This data set deals with Hfq K56A K56A (UniProt P0A6X3). Kind of data set: SPR. Particulars: EMSA: 50 mM Tris-HCl pH 7.5, 100 mM KCl, 10 mM MgCl2, room temperature, SPR: same buffer, 25 C, Tb footprinting: 50 mM Tris-HCl pH 8.0, 100 mM NaCl. Background: Mobility shift assays separate free from complexed probe on a gel.

With “GCAGCGUUACAUUCCCAUCCACUGGGGAAAGACGCGGCGCUGAUUGGUGAAGUGGUGGAACGUAAAGGUGUUCGUCUUGCCGGUCUGUAUGGCGUGAAACGAACCCUCGAUUUACCACACGCCGAACCGCUUCCGCGUAUAUGCUAAUAAAAUUCUAAAUCUCCUAUAGUUAGUCAAUGACCUUUUGCACCGCUUUGCGGUGCUUUCCUGGAAGAACAAAAUGUCAUAUACACCGAUGAGUGAUCUCGGACAACAAGGGUUGUUCGACAUCACUCGGACAAAUAUUGGAUCCGCUCGG [fhlA220 mRNA]”, the dissociation constant Kd (in general, the concentration at which binding is half-saturated) is 3 nM.

The record behind these values is publication PMC2946933.
